Test results: publication PMC12444171, “Chromatin remodeler BRD9 represses transcription of PPARα target genes, including CPT1A to suppress lipid metabolism” (Journal of Lipid Research, 2025)

Target: T1, BRD7-His (bromodomain-containing protein 7 with His tag) (human, UniProt Q9NPI1 1-651)
T1 construct: Bromodomain-containing protein 7, human; source: HEK293T, transfected, in lysate; for the pull-down purified from HEK293T cell lysates
T1 sequence (looked up): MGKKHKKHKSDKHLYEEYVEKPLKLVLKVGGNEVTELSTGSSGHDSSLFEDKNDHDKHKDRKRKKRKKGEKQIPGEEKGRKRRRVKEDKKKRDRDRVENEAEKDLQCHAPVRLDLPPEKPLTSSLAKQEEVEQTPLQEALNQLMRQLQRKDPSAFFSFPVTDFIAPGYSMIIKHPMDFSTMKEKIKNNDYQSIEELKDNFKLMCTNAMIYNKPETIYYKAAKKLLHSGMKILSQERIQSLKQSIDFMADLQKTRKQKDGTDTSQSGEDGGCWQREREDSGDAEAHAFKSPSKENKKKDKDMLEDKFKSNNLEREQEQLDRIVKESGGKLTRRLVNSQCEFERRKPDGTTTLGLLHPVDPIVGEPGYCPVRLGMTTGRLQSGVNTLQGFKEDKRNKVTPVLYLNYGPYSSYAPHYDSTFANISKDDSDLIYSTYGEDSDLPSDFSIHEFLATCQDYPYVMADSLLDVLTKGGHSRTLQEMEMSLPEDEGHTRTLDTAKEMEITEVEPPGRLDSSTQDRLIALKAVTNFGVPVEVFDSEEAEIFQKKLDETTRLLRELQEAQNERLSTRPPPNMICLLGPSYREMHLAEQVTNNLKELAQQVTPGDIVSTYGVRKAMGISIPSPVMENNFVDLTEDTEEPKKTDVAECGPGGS
Assay: co-IP; HEK293T cells co-transfected with FLAG-PPARα and BRD7-His or BRD9-His; lysate (0.3 M NaCl, 0.5% NP-40, pH 8.0) on anti-His tag antibody-Dynabeads Protein G, 2 h at room temperature; Western blot; in Fig. 5C the cells were treated with 30 μM WY-14643 and/or 40 μM BI-9564 for 48 h (interaction markedly attenuated)
Settings: partners not purified

B1: FLAG-PPARα (peroxisome proliferator-activated receptor α with 3×FLAG) (natural protein, human, UniProt Q07869 1-468, looked up)
chain: MVDTESPLCPLSPLEAGDLESPLSEEFLQEMGNIQEISQSIGEDSSGSFGFTEYQYLGSCPGSDGSVITDTLSPASSPSSVTYPVVPGSVDESPSGALNIECRICGDKASGYHYGVHACEGCKGFFRRTIRLKLVYDKCDRSCKIQKKNRNKCQYCRFHKCLSVGMSHNAIRFGRMPRSEKAKLKAEILTCEHDIEDSETADLKSLAKRIYEAYLKNFNMNKVKARVILSGKASNNPPFVIHDMETLCMAEKTLVAKLVANGIQNKEAEVRIFHCCQCTSVETVTELTEFAKAIPGFANLDLNDQVTLLKYGVYEAIFAMLSSVMNKDGMLVAYGNGFITREFLKSLRKPFCDIMEPKFDFAMKFNALELDDSDISLFVAAIICCGDRPGLLNVGHIEKMQEGIVHVLRLHLQSNHPDDIFLFPKLLQKMADLRQLVTEHAQLVQIIKKTESDAALHPLLQEIYRDMY
modifications: acetylated lysine residue(s), positions not given
notes: the sites are not mapped; source: HEK293T, transfected (pcDNA3.1), in lysate; for the pull-down captured from lysate on anti-FLAG antibody-Dynabeads Protein G and washed; not shown: 3×FLAG, N-terminal, kept
Q: Does B1 bind?
A: Result: binds
